First the molecules themselves.
B3: BMAL1 TAD (residues 579–626) (domain or fragment)
chain: not shown
notes: numbers count on: isoform Q9WTL8-4; Used at natural abundance or uniformly 15N-labelled; also called 15N BMAL1 TAD; source: E. coli Rosetta (DE3), purified (Ni-NTA, TEV cleavage, Superdex 75); not shown: His6-NusA-XL (HNXL), N-terminal, cleaved
B4: CBP TAZ2 domain (residues 1764–1855; C1776A, C1784A, C1827A, C1828A) (domain or fragment, mouse, UniProt P45481 1764-1855, looked up)
chain: SPQESRRLSIQRAIQSLVHAAQCRNANCSLPSCQKMKRVVQHTKGCKRKTNGGCPVCKQLIALAAYHAKHCQENKCPVPFCLNIKHKLRQQQ
notes: CBP TAZ2 domain, mouse, UniProt P45481, residues 1764–1855, with four cysteine to alanine mutations that increase solubility and stability; source: E. coli (BL21), purified (amylose sepharose, S-sepharose, Superdex 75)
B6: CBP KIX domain (residues 586–672) (domain or fragment)
chain: not shown
notes: CBP KIX domain, mouse, UniProt P45481, residues 586–672; tagless; Plasmid was a gift from Peter Wright; Used at natural abundance or uniformly 15N-labelled; also called WT KIX; 15N CBP KIX; source: E. coli Rosetta (DE3), purified (Ni-NTA through native histidines, size exclusion)
B8: [5,6] TAMRA-labeled BMAL1 minimal TAD peptide (residues 594–626), WT (peptide)
peptide: not shown
modifications: 5,6-TAMRA on the N-terminus; free carboxyl C-terminus
notes: BMAL1 minimal TAD with helix and switch regions, residues 594–626; numbers count on: isoform Q9WTL8-4; also called [5,6]; TAMRA-BMAL1 TAD probe; native TAD probe; source: synthetic peptide (Bio-Synthesis, 95% purity)

Data set [1] addresses B4. The experiment in a line: NMR titration; 15N-1H HSQC of 100 μM 15N BMAL1 TAD WT or L606A/L607A with stepwise additions of CBP KIX (WT or 3mut), TAZ1 or TAZ2; 25°C; 10 mM MES pH 6.5, 50 mM NaCl, 10% D2O; KD from fits of concentration-dependent CSPs, apparent. The note with it: both partners purified.
For data set [2], the target named is B6. In words: NMR titration; 15N-1H HSQC of 100 μM 15N CBP KIX with stepwise additions of natural abundance BMAL1 TAD or truncated peptides; 25°C; 10 mM MES pH 6.5, 50 mM NaCl, 10% D2O. The note with it: both partners purified.
In data set [3] the target is B6. In words: ITC; 220–230 μM CBP KIX WT or 3mut titrated into 20–25 μM BMAL1 TAD WT or L606A/L607A; 25°C; 10 mM MES pH 6.5, 50 mM NaCl; one-site model. The note with it: both partners purified. Background: ITC needs no label: the signal is the heat of the interaction.
Data set [4] deals with B8. In words: fluorescence polarisation; CBP KIX, TAZ1 or TAZ2 titrated onto [5,6] TAMRA-labeled BMAL1 minimal TAD probes (25 nM in the legend, 50 nM in the methods); 10 mM MES pH 6.5, 50 mM NaCl, 0.05% Tween-20; room temperature; one-site specific binding with Hill coefficient; apparent KDs. The note with it: both partners purified. For orientation: Fluorescence polarisation rises when a labelled molecule tumbles more slowly, as on binding a larger partner.

For data set [5], the target named is B3. In words: ITC; 220–230 μM CBP KIX WT or 3mut titrated into 20–25 μM BMAL1 TAD WT or L606A/L607A; 25°C; 10 mM MES pH 6.5, 50 mM NaCl; one-site model. The note with it: both partners purified.
Data set [6] deals with the molecule itself. The experiment in a line: cryo-EM structure; two CLOCK:BMAL1 bHLH-PAS-AB protomers on a nucleosome with tandem E-boxes 6 bp apart (SHL +3.9/+5.1); GraFix glutaraldehyde cross-linked; 4.1 Å overall, 8–12 Å in the PAS region.
The target in data set [7] is B4. The experiment in a line: fluorescence polarisation; CBP KIX, TAZ1 or TAZ2 titrated onto [5,6] TAMRA-labeled BMAL1 minimal TAD probes (25 nM in the legend, 50 nM in the methods); 10 mM MES pH 6.5, 50 mM NaCl, 0.05% Tween-20; room temperature; one-site specific binding with Hill coefficient; apparent KDs. The note with it: both partners purified.

B1: BMAL1 TAD L606A/L607A (residues 579–626) (domain or fragment)
chain: not shown
notes: numbers count on: isoform Q9WTL8-4; Used at natural abundance or 15N-labelled; also called L606A/L607A TAD mutant; 15N BMAL1 TAD L606A/L607A; source: E. coli Rosetta (DE3), purified (Ni-NTA, TEV cleavage, Superdex 75); not shown: His6-NusA-XL (HNXL), N-terminal, cleaved
With B1, the binding result in data set [1] is on record as “binds”.

B2: trans-locked BMAL1 switch peptide P625A (FSDLPWAL) (peptide)
peptide: FSDLPWAL
notes: numbers count on: isoform Q9WTL8-4; All trans; also called P625A switch; trans-locked switch; source: synthetic peptide (solid phase, Fmoc chemistry; C18 HPLC)
As to B2, the binding result in data set [2] is recorded as “binds”. B3 registered a Kd in data set [3] of about 2000 nM. The binding result in data set [1] is “binds”. For the molecule B4, the “fold lower affinity than TAZ1” value in data set [4] is about 20 fold.

B5: BMAL1 linker-switch peptide (residues 613–626) (peptide, UniProt Q9WTL8-4 613-626, looked up)
peptide: LGGPVDFSDLPWPL
notes: BMAL1, mouse, residues 613–626 (linker and switch of the TAD); numbers count on: isoform Q9WTL8-4; source: synthetic peptide (Pierce, 95% purity)
As for B5, the binding result in data set [2] was “binds”. As for B6, in data set [5], the “stoichiometry N” value is 0.8 to 1.1.

B7: CLOCK:BMAL1 bHLH-PAS-AB heterodimer (complex)
chain 1: VEEDDKDKAKRVSRNKSEKKRRDQFNVLIKELGSMLPGNARKMDKSTVLQKSIDFLRKHKETTAQSDASEIRQDWKPTFLSNEEFTQLMLEALDGFFLAIMTDGSIIYVSESVTSLLEHLPSDLVDQSIFNFIPEGEHSEVYKILSTHLLESDSLTPEYLKSKNQLEFCCHMLRGTIDPKEPSTYEYVRFIGNFKSLTSVSTSTHNGFEGTIQRTHRPSYEDRVCFVATVRLATPQFIKEMCTVEEPNEEFTSRHSLEWKFLFLDHRAPPIIGYLPFEVLGTSGYDYYHVDDLENLAKCHEHLMQYGKGKSCYYRFLTKGQQWIWLQTHYYITYHQWNSRPEFIVCTHTVVSYAEVRAERRRELGIEESL
chain 2: not shown
notes: CLOCK bHLH PAS-AB, mouse, UniProtKB O08785, residues 26–395; BMAL1 bHLH PAS-AB, mouse, UniProtKB Q9WTL8-4, residues 62–441; numbers count on: isoform Q9WTL8-4; Purified on Ni-NTA and cleaved with His-TEV; also called CLOCK:BMAL1 protomer; source: insect cells (Spodoptera frugiperda or Hi5), purified (Ni-NTA, TEV cleavage, heparin, Superdex 200); copies: 1 + 1
As for B7, in data set [6], the binding result was “binds”.

As for B8, the binding result in data set [7] is given as “binds”.

In general, Kd refers to the concentration at which binding is half-saturated. As a reminder, the stoichiometry N is the number of molecules, sites or subunits per partner or assembly.

(Values after article doi:10.1101/2025.09.04.674342, “Tandem association of CLOCK:BMAL1 complexes on DNA enables recruitment of CBP/p300 through multivalent interactions” (bioRxiv, 2025).)
